Assay results taken from publication PMC9482650, “Quantitative fragmentomics allow affinity mapping of interactomes” (Nature Communications, 2022).

T1: MPDZ_10, O75970
T1 sequence (O75970 1624-1722, limits assumed, looked up): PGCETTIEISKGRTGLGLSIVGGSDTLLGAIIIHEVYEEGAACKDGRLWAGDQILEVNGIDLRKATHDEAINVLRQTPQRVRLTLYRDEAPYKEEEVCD

T2: MPP6, Q9NZW5
T2 sequence (Q9NZW5 125-219, limits assumed, looked up): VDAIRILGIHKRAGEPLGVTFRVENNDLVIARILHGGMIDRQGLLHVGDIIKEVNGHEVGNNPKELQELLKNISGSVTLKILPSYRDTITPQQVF

T3: PDZD2_2, O15018
T3 sequence (O15018 329-429, limits assumed, looked up): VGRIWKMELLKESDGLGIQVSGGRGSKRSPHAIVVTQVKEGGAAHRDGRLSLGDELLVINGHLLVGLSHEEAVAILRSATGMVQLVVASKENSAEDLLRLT

T4: LIN7B, Q9HAP6
T4 sequence (Q9HAP6 88-185, limits assumed, looked up): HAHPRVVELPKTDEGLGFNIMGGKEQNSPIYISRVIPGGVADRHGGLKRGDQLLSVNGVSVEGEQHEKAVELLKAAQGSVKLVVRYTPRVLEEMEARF

T5: TX1BP3, O14907
T5 sequence (O14907 10-122, limits assumed, looked up): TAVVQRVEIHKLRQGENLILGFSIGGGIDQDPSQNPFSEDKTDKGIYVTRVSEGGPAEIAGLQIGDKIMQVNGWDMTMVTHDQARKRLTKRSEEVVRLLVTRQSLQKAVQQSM

T6: ARHGAP21, Q5T5U3
T6 sequence (Q5T5U3 45-169, limits assumed, looked up): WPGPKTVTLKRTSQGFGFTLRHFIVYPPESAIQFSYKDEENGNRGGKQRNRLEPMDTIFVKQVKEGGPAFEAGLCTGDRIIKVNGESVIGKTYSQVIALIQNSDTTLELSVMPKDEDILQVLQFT

T7: LIN7C, Q9NUP9
T7 sequence (Q9NUP9 88-185, limits assumed, looked up): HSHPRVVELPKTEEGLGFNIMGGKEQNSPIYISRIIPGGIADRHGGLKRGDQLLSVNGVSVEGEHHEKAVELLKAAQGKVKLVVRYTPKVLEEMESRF

T8: DLG3_1, Q92796
T8 sequence (Q92796 125-227, limits assumed, looked up): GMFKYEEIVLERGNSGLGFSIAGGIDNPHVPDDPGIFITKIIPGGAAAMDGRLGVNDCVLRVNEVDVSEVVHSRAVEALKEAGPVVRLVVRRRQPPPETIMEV

T9: SNTB1, Q13884
T9 sequence (Q13884 107-205, limits assumed, looked up): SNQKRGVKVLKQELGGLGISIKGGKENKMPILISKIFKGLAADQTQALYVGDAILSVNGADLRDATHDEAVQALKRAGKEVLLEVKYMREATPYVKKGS

T10: TIAM2, Q8IVF5
T10 sequence (Q8IVF5 885-986, limits assumed, looked up): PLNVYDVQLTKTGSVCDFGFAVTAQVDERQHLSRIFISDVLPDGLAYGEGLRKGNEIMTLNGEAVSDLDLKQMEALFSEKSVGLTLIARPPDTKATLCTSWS

T11: GRIP1_4, Q9Y3R0
T11 sequence (Q9Y3R0 467-571, limits assumed, looked up): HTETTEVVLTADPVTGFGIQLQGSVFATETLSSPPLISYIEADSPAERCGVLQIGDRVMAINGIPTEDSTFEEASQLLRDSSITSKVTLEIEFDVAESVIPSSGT

T12: MPDZ_5, O75970
T12 sequence (O75970 695-796, limits assumed, looked up): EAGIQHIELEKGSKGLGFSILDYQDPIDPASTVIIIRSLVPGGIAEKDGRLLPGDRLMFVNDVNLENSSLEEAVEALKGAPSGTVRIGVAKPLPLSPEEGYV


Legend:
Test in all cases: holdup assay
Set-up in all cases: key: below the threshold = too weak to quantify, mostly under pKd 3.1 to 4
Conditions in all cases: plain residues with an end cap or a label only (N-terminal biotin on a linker: ado-ado)
MPDZ_10, O75970 = target: T1, MPDZ_10, O75970
MPP6, Q9NZW5 = target: T2, MPP6, Q9NZW5
SNX27, Q96L92 = target: SNX27, Q96L92
PDZD2_2, O15018 = target: T3, PDZD2_2, O15018
LNX1_2, Q8TBB1 = target: LNX1_2, Q8TBB1
Sequence of LNX1_2, Q8TBB1 (Q8TBB1 371-470): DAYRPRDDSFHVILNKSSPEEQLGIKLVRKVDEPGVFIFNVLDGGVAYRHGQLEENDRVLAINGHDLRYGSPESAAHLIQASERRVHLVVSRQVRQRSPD

LIN7B, Q9HAP6 = target: T4, LIN7B, Q9HAP6
FRMPD2_1, Q68DX3 = target: FRMPD2_1, Q68DX3
Sequence of FRMPD2_1, Q68DX3 (Q68DX3 770-861): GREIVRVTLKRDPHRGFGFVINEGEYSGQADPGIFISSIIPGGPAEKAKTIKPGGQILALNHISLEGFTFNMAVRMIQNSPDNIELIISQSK

GRASP, Q7Z6J2 = target: GRASP, Q7Z6J2
Sequence of GRASP, Q7Z6J2 (Q7Z6J2 96-193): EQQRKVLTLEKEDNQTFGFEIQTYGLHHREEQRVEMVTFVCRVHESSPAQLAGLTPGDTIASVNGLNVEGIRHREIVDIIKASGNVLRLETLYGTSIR

GRID2IP_2, A4D2P6 = target: GRID2IP_2, A4D2P6
Sequence of GRID2IP_2, A4D2P6 (A4D2P6 272-370): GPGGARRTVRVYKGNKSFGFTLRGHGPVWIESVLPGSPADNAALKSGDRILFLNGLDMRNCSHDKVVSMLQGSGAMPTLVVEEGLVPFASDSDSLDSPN

PICK1, Q9NRD5 = target: PICK1, Q9NRD5
Sequence of PICK1, Q9NRD5 (Q9NRD5 17-115): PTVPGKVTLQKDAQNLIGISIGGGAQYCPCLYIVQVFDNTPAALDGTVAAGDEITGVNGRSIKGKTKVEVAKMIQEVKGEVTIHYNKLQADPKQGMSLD

SCRIB_3, Q14160 = target: SCRIB_3, Q14160
Sequence of SCRIB_3, Q14160 (Q14160 999-1103): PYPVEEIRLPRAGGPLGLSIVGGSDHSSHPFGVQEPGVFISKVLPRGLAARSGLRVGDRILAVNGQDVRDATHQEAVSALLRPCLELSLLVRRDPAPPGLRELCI

MAGI1_2, Q96QZ7 = target: MAGI1_2, Q96QZ7
Sequence of MAGI1_2, Q96QZ7 (Q96QZ7 456-580): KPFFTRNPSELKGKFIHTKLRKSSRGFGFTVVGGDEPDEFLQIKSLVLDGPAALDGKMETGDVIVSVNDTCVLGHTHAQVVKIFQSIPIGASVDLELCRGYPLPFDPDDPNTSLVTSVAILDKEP

TX1BP3, O14907 = target: T5, TX1BP3, O14907
ARHGAP21, Q5T5U3 = target: T6, ARHGAP21, Q5T5U3
Inadl_6, Q8NI35 = target: Inadl_6, Q8NI35
Sequence of Inadl_6, Q8NI35 (Q8NI35 1058-1167): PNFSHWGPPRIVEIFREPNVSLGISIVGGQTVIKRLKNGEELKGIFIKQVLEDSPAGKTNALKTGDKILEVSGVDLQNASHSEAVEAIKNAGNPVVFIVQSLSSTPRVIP

DLG5_1, Q8TDM6 = target: DLG5_1, Q8TDM6
Sequence of DLG5_1, Q8TDM6 (Q8TDM6 617-713): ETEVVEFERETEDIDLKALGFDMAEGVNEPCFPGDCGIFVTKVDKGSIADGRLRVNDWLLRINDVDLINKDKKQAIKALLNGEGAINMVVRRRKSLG

LIN7C, Q9NUP9 = target: T7, LIN7C, Q9NUP9
LAP2, Q96RT1 = target: LAP2, Q96RT1
Sequence of LAP2, Q96RT1 (Q96RT1 other isoform, or with tags, fused parts or gaps): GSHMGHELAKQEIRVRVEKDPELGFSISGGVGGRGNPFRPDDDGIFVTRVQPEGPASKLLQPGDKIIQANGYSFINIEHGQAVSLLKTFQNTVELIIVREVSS

DLG3_1, Q92796 = target: T8, DLG3_1, Q92796
SNTB1, Q13884 = target: T9, SNTB1, Q13884
TIAM2, Q8IVF5 = target: T10, TIAM2, Q8IVF5
GRIP1_4, Q9Y3R0 = target: T11, GRIP1_4, Q9Y3R0
MPDZ_5, O75970 = target: T12, MPDZ_5, O75970
AHNAK1, Q09666 = target: AHNAK1, Q09666
Sequence of AHNAK1, Q09666 (Q09666 4-100): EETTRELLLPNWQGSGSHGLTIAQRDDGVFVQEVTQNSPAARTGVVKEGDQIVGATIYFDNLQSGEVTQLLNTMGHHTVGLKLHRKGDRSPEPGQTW

FRMPD2_2, Q68DX3 = target: FRMPD2_2, Q68DX3
Sequence of FRMPD2_2, Q68DX3 (Q68DX3 944-1038): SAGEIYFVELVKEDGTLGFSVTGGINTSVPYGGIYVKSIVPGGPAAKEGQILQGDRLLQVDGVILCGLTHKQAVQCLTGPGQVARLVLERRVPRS

Binder	pKd (MPDZ_10, O75970)	pKd (MPP6, Q9NZW5)	pKd (SNX27, Q96L92)	pKd (PDZD2_2, O15018)	pKd (LNX1_2, Q8TBB1)	pKd (LIN7B, Q9HAP6)	pKd (FRMPD2_1, Q68DX3)	pKd (GRASP, Q7Z6J2)	pKd (GRID2IP_2, A4D2P6)	pKd (PICK1, Q9NRD5)	pKd (SCRIB_3, Q14160)	pKd (MAGI1_2, Q96QZ7)	pKd (TX1BP3, O14907)	pKd (ARHGAP21, Q5T5U3)	pKd (Inadl_6, Q8NI35)	pKd (DLG5_1, Q8TDM6)	pKd (LIN7C, Q9NUP9)	pKd (LAP2, Q96RT1)	pKd (DLG3_1, Q92796)	pKd (SNTB1, Q13884)	further results
LPHPHSTTRV [NLGN2, Q8NFZ4]	3.62	below the threshold	5.41	below the threshold	below the threshold	3.58	below the threshold	4.18	3.63	4.24	below the threshold	4.13	3.79	3.71	below the threshold	below the threshold	below the threshold	below the threshold	below the threshold	4.22	pKd (TIAM2, Q8IVF5): below the threshold; pKd (GRIP1_4, Q9Y3R0): below the threshold; pKd (MPDZ_5, O75970): below the threshold; pKd (AHNAK1, Q09666): below the threshold; pKd (FRMPD2_2, Q68DX3): 3.59
EVEEFPETSV [TRPV3, Q8NET8]	3.56	below the threshold	5.83	4.99	3.59	4.3	3.59	3.9	4.39	below the threshold	5.02	3.63	4.8	4.15	4.18	3.7	4.51	4.93	3.87	5.23	pKd (TIAM2, Q8IVF5): below the threshold; pKd (GRIP1_4, Q9Y3R0): 3.47; pKd (MPDZ_5, O75970): 3.56; pKd (AHNAK1, Q09666): below the threshold; pKd (FRMPD2_2, Q68DX3): 5.16
QGLAERISVL [PRKD2, Q9BZL6]	3.76	below the threshold	4.78	4.32	below the threshold	below the threshold	below the threshold	4.73	4.81	4.17	4.19	below the threshold	4.38	3.93	4.02	below the threshold	4.12	below the threshold	below the threshold	4.92	pKd (TIAM2, Q8IVF5): below the threshold; pKd (GRIP1_4, Q9Y3R0): below the threshold; pKd (MPDZ_5, O75970): below the threshold; pKd (AHNAK1, Q09666): below the threshold; pKd (FRMPD2_2, Q68DX3): below the threshold
PRISRSQSEL [CCDC134, Q9H6E4]	below the threshold	below the threshold	below the threshold	3.66	below the threshold	3.62	below the threshold	4.31	3.61	4.14	4.06	4.13	3.52	below the threshold	below the threshold	below the threshold	below the threshold	below the threshold	below the threshold	below the threshold	pKd (TIAM2, Q8IVF5): 3.86; pKd (GRIP1_4, Q9Y3R0): below the threshold; pKd (MPDZ_5, O75970): below the threshold; pKd (AHNAK1, Q09666): below the threshold; pKd (FRMPD2_2, Q68DX3): below the threshold
